Test [1] addresses T1, bovine CYP11A1, wild type, mature, residues 41-520 (bovine, UniProt P00189 41-520).
T1 sequence (looked up): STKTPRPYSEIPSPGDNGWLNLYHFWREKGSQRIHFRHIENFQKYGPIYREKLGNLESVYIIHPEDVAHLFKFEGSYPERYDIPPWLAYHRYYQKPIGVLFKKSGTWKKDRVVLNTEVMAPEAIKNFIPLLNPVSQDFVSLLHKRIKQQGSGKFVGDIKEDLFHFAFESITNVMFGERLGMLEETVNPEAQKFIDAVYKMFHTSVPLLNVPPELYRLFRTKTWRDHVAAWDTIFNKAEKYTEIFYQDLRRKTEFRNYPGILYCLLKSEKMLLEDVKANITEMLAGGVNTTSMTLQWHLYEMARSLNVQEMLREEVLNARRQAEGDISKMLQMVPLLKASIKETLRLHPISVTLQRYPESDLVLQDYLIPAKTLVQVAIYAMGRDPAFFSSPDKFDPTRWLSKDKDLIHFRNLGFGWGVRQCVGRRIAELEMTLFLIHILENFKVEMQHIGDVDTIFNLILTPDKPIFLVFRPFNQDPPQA
Nature of the test: cell-based or functional assay.

In test [2] the target is T1, bovine CYP11A1, wild type, mature, …. Nature of the test: NMR titration; 2D 1H,15N-HSQC of 50 uM 15N-Adx with 0.25 to 1.0 equivalents of CYP11A1; 50 mM potassium phosphate, 50 mM NaCl, pH 7.2; peak intensity ratios; some samples with cholesterol or vitamin D3 in 25% HPCD added to the pre-formed complex. As to conditions: both partners purified.

B1: bovine Adrenodoxin M77L (natural protein)
chain: SSSEDKITVHFINRDGETLTTKGKIGDSLLDVVVQNNLDIDGFGACEGTLACSTCHLIFEQHIFEKLEAITDEENDLLDLAYGLTDRSRLGCQICLTKAMDNMTVRVPDAVSDARESIDMGMNSSKIE
modifications: uniform 15N labelling in the NMR samples
For B1, in test [1], the “reconstituted CYP11A1 assay, side chain cleavage of cholesterol: pregnenolone produced with Adx M77L compared to WT Adx, at 45 min” value was 0.6 fold (decrease relative to WT Adx) and the “reconstituted CYP11A1 assay: vitamin D3 depletion with Adx M77L compared to WT Adx, at 45 min” value was 0.7 fold (decrease relative to WT Adx).

B2: bovine Adrenodoxin M77S (natural protein)
chain: SSSEDKITVHFINRDGETLTTKGKIGDSLLDVVVQNNLDIDGFGACEGTLACSTCHLIFEQHIFEKLEAITDEENDSLDLAYGLTDRSRLGCQICLTKAMDNMTVRVPDAVSDARESIDMGMNSSKIE
modifications: uniform 15N labelling in the NMR samples
With B2, the “reconstituted CYP11A1 assay: vitamin D3 metabolism with Adx M77S compared to WT Adx, at 45 min” value in test [1] is ~0.3 fold (increase relative to WT Adx).

B3: bovine Adrenodoxin, wild type (15N-labeled for NMR) (natural protein)
chain: SSSEDKITVHFINRDGETLTTKGKIGDSLLDVVVQNNLDIDGFGACEGTLACSTCHLIFEQHIFEKLEAITDEENDMLDLAYGLTDRSRLGCQICLTKAMDNMTVRVPDAVSDARESIDMGMNSSKIE
modifications: uniform 15N labelling in the NMR samples
notes: Adrenodoxin (Adx), bovine; Carries a 2Fe-2S cluster; also called Adx; WT Adx; source: Ni-NTA, then size exclusion chromatography (Superdex 75)
On to B3, for which the binding result in test [2] is reported as “binds”.
